The values below come from the domain aggregation screens of Martell et al. (2025).

A short description of this series: soluble fraction after stress (log2 fold change); higher = more stays soluble; pooled small domains, quantitative proteomics. The following applies: stress: 50 degC. An outline of the steps:
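Pooled custom libraries of small protein domains were measured in a high-throughput format, with quantitative proteomics as the read-out. Each library was stressed at 50°C. Aggregation propensity is given as the base-two logarithm of the fold change in how much of each protein stays soluble after the stress. Higher values mean a larger share of the protein remains in solution.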
With “HMQEDSNISFVKIHVDADSGMAHKKLSKLSLPTGFLIVVIIRGEENIIPNGETEVLPGDLLVAAAREFEN”, the “soluble fraction (log2)” value was -0.405.

“HMQEEELYPRLEEVINQHRGKGEDLIMVLHKAQNLFGYLPRRAQEMVAEGLNVSLNEVYGVITFYNFFST”: the “soluble fraction (log2)” value was -0.0621.

For “HMQEERDISFIKIHLEPGHPWRGRALRELMPLKDLLIVMVVRGEDTIVPNGDTRLEEGDLLVLAAYPFEE”, the “soluble fraction (log2)” value was -0.436.

As for “HMQEHAHLWRLMEDNRSFKADYIAFENGIVLLQNLSSGKISQYPITDFSIEDQLLILKRHELTAHINAN”, the “soluble fraction (log2)” value was -3.09.

In the case of “HMQEIKPEPISDGRVWKEGMWATTPLGIEGQLLSDPDEKGMVQLGYGNMRININIQDLDPSR”, the “soluble fraction (log2)” value was -0.0705.

With “HMQEISQEEALATVLKDLSLTEADLKDLQITREEDKYKILFSKGQTAYDVLVSAKDGQLLQSKQETI”, the “soluble fraction (log2)” value was -0.165.

As to “HMQEKQIIDGREFYIHQVERGITLYSIAKQYNVKVADIQAENPFLEAGLQPGQTLKIPLDKVETVQEIK”, the “soluble fraction (log2)” value came to 0.125.

“HMQEPIAVPDFINKSAVDVLVNPVFTQNFKLVSEDVYDDKVPEGYIVGQSVKSDTLVQPGTEIVIYV”: the “soluble fraction (log2)” value came to 0.175.

On to “HMQEPNYQPLMQNIKSQDLEEVTRLLSLNDVKFKIDHRTGLLLVESSRVYEAKMKLAATGITD”, for which the “soluble fraction (log2)” value is -0.224.

On to “HMQEPVHFTRRERQVLSLILSGQATAEIAKTLGIANATVTTYKKSLYSKSGTNSLSRLLIWAMVRR”, for which the “soluble fraction (log2)” value is -0.27.

Consider “HMQEPVYRPVFPGMTDADRQSAMEALKEGGFSPRLNRQTGQLEVDASGYHEAKIYLASQGIPAE”, for which the “soluble fraction (log2)” value was 0.124.

Take “HMQERNYIVRRGDTLWDLAKTYYGSGTKYTVIYDANRDNIEAEAKRRGKQSSNGGYWIYPGTELTI”: the “soluble fraction (log2)” value is -0.368.

Turning to “HMQERTVVKGVVVQVSRDEAYVDIGYKQEIPVSKRDLAVPAPDDARDVVKVGDEIDVYIKSLGGDNGG”, the “soluble fraction (log2)” value was -0.00098.

On to “HMQESTPGEGYKWREDVLLRVMSQNGIDESLRDEFVRHAVNYDIDDNMYLKKAEIESAAEAWVLENS”, for which the “soluble fraction (log2)” value was -0.0581.

For the sequence “HMQESVTVSAQALRRLLEKGDGDAALLYLALLRHHGTIQPRALAGELRWERPRIEAAEEALRQMGLIA”, the “soluble fraction (log2)” value was -0.0318.

For “HMQETMTNDEVISLTKAGLSSSIIIGKIRSSATNFDLSTDSLIKLKQAGVSDETVAAMLEAKS”, the “soluble fraction (log2)” value came out at 0.0855.

Regarding “HMQGAARGMLFAQAQRWMTKFRIDPQQADRITQAALDPAQTDAILREVRRGYGPSAERALRGIIRRARRA”, the “soluble fraction (log2)” value was -0.968.

Take “HMQGEAMQETVKKLDAFLQDNSVSMSALARALGVSPSLISQFRSGSYKGDSQAIAAKINSYIDNHNKKSK”: the “soluble fraction (log2)” value is 0.0765.

Take “HMQGEKDDLWREVLDNPDAWWDNRERKNAPGGNPRYPDFKHKDSQTPLWIESRDTPQWAIDALL”: the “soluble fraction (log2)” value came to 0.383.

“HMQGNGKVATELLKDIIASDNLYINAMRMLVMHYNSKGTNQVEMVKLLHNILDLVPDDEYANEILKSAKKA”: the “soluble fraction (log2)” value is -0.327.

As to “HMQGPDPYAVLGIDRHADERAIKRAYRKLISEHHPDRLGDLPEDMRKRAESRASEINAAYDRIKEARGF”, the “soluble fraction (log2)” value came to 0.0487.

In the case of “HMQGQVLQETARKARSQLDSEIPGFNDALYQNLIKSSENYGYKAEEVAQWVDPRAIKVLNDAYQFQQLKAG”, the “soluble fraction (log2)” value was -0.0765.

Take “HMQGTTTELLIQKSALYEELNDPEKALNAMFDAFEMDSLNVNVLHRIVSLLLDKEENEKAILYNQLIIDH”: the “soluble fraction (log2)” value was determined as 0.126.

Consider “HMQHQSGLKSGEFEAISQQLQALLKENPLSLQEIKDKMQVTENHLIKVVSYLVSEEIIRQENGYLK”, for which the “soluble fraction (log2)” value was -0.729.

Regarding “HMQIAGLDDIDNRIIDLLLKNGRASYSEIGAAVGLSRTAAKNRIRALEASGIIRGYQAILDPQA”, the “soluble fraction (log2)” value was -0.205.

In the case of “HMQIDDSVELSAIVEKLLAANPEQVEQLKNGKTKVLGYFVGLAMKETQGRANPQKVNELIQTHL”, the “soluble fraction (log2)” value is -0.174.

Consider “HMQIDRLFDIVYTLLRKKSATAAELAERFGVSKRTILRDIETLSVAGIPILTSPGKGGGVSISSSF”, for which the “soluble fraction (log2)” value is -0.881.

“HMQIIETTVGRVLFNEKVPEAAGYINEVLTKKSLRDIIHGILKKTSVPETAAFLDEIKSLGYNFAF”: the “soluble fraction (log2)” value is -0.066.
